Test system: HUVECs
Experiment: HUVEC proliferation ([3H]-thymidine incorporation)
Assay type: cell-based, human
Details: 48 h
Protocol: In brief, fresh synovial tissues were minced into 2- to 3-mm pieces, then treated for 4 h with 4 mg/ml type I collagenase (Worthington Biochemical), and maintained in Dulbecco's Modified Eagle's Medium (DMEM) containing 10% FBS at 37° C. in an atmosphere containing 5% CO2. […] MH7A cells, the immortalized synoviocytes that harbor the SV40 T antigen, were grown in DMEM supplemented with 10% FBS, as previously described (Miyazawa, K, A. Mori, and H. Okudaira. 1998. Establishment and characterization of a novel human rheumatoid fibroblast-like synoviocyte line, MH7A, immortalized with S[…] antigen. J. Biochem. 124: 1153-1162), and then employed in some of the experiments. Human umbilical vein endothelial cells (HUVECs) were isolated from fresh human umbilical cords via collagenase (Worthington Biochemical) digestion, and then maintained in 20% FBS-containing M-199 medium (Sigma, St. Louis, Mo.), as previously described. All HUVECs were used after no more than five passages. The RA FLS, OA FLS, and HUVECs were plated onto 24-well culture dishes at a density of 2×10^4 cells/well, and then permitted to attach overnight. […] Cell growth was also evaluated via cell counts. Control and mitogen-treated cells were harvested by trypsinization, and the number of cells was determined with a hemocytometer, under ×100 magnification.

B1: SAA: Serum amyloid A, multi-functional apolipoprotein, 12- to 14-kDa, SEQ ID NO:19 (protein, listed as Homo sapiens)
chain: MKLLTGLVFCSLVLGVSSRSFFSFLGEAFDGARDMWRAYSDMREANYIGSDKYFHARGNYDAAKRGPGGVWAAEAISDARENIQRFFGHGAEDSLADQAANEWGRSGKDPNHFRPAGLPEKY
- concentration of maximum effects on HUVEC DNA synthesis: 5 µM
- DNA synthesis in HUVECs (SAA 0.1 to 5 μM): dose-dependent manner
